Earlier results in patent publication US5770691A, “Discriminatory substrates for MMP hydrolysis” (Regents of the University of Minnesota, priority 1995, dated 1998).

Molecular target: MMP-3 (Homo sapiens, UniProt P08254)
Details: MMP-3 cleavage, determined at 37° C.

Chain of MMP-3 (P08254 100-477, species assumed): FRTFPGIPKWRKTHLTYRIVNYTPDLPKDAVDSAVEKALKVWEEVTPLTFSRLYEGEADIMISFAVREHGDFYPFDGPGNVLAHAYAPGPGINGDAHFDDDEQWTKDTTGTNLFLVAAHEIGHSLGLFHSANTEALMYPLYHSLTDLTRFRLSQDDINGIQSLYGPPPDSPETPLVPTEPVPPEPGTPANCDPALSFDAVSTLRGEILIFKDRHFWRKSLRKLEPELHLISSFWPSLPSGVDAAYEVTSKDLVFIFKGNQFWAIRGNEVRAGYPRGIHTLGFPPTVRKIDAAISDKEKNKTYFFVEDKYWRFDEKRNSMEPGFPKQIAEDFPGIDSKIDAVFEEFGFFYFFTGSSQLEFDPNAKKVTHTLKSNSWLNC

B1: Human α1 -antichymotrypain: protease inhibitor cleaved by MMP-3 at Ala360-Leu361 (protein, UniProt P01011 24-423, looked up)
Alpha-1-antichymotrypsin: HPNSPLDEENLTQENQDRGTHVDLGLASANVDFAFSLYKQLVLKAPDKNVIFSPLSISTALAFLSLGAHNTTLTEILKGLKFNLTETSEAEIHQSFQHLLRTLNQSSDELQLSMGNAMFVKEQLSLLDRFTEDAKRLYGSEAFATDFQDSAAAKKLINDYVKNGTRGKITDLIKDLDSQTMMVLVNYIFFKAKWEMPFDPQDTHQSRFYLSKKKWVMVPMMSLHHLTIPYFRDEELSCTVVELKYTGNASALFILPDQDKMEEVEAMLLPETLKRWRDSLEFREIGELYLPKFSISRDYNLNDILLQLGIEEAFTSKADLSGITGARNLAVSQVVHKAVLDVFEEGTEASAATAVKITLLSALVETRTIVRFNRPFLMIIVPTDTQNIFFMSKVTNPKQA
In the case of B1, the “kcat /Kb” value is listed as 35,000 S^-1 M^-1.
